In US12202887B2, “Eradication of bacterial biofilm using anti-amyloid monoclonal antibodies” (priority 2018, dated 2025):
Like-named read-outs stand apart in the source and are kept apart here.

Legend:
S. Typhimurium biofilm [1] = assay: S. Typhimurium biofilms with or without ALZ.3H3, then ampicillin or DNase for 24 hours, Syto9 imaging; assay type: cell-based; conditions: for Overall biofilm appearance: wildtype biofilms treated alone for 24 hours after biofilm establishment
Text: Biofilms enhance the recalcitrance of bacteria to antibiotics (Keren et al., 2004, FEMS Microbiol Lett, 230(1):13-8, Brown et al., 1988, J Antimicrob Chemother, 22(6):777-80, Stewart, 2002, Int J Med Microbiol, 292(2):107-13). To enhance the clearance of bacterial biofilms, the structure of the biofilm was altered by employing ALZ.3H3 and then the biofilm was subjected to antibiotics to kill the bacteria within the disperse biofilm. […] an additional integral component of S. Typhimurium biofilms, wildtype or ALZ.3H3 incubated biofilms were exposed to X DNase treatment for an additional 24 hours. Biofilms were then stained with Syto9 and visualized using CSML. Excessive washing steps were avoided in aims to examine the architecture of the biofilms.

Aβ42 conformers = target: T1, Aβ42 conformers (Homo sapiens, UniProt P05067); assay: MAb binding to Aβ42 conformers by surface plasma resonance (SPR)
T1 construct: Amyloid beta derived diffusible ligands (ADDLs), also known as globulomers, produced from Aβ42
T1 sequence (P05067 672-713 limits assumed): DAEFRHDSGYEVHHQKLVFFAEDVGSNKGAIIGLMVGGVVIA
Method: MAb binding to Aβ42 conformers was measured by surface plasma resonance (SPR) (Table 1). Calculated affinity constants (KD) were obtained using Qdat software. […] The 3H3 binding data is qualitatively most similar to the 4G1 and 6E10 mAbs.

[2] = system: pre-established S. Typhimurium biofilms; assay: mAb added to pre-established S. Typhimurium biofilms, CSLM and particle count; assay type: cell-based
Method: To determine if ALZ.3H3 can reduce biofilm formation of pre-established biofilms of S. Typhimurium, 0.5 mg/ml of ALZ.3H3 was added for an additional 24 hours to a 24 hour pre-established biofilm of S. Typhimurium, or 0.5 mg/ml of ALZ.3H3 was added for 24 hours to a 48 hour pre-established biofilms. These biofilms were then compared, respectively, to a 48 and 72 hour S. Typhimurium biofilm that was not exposed to ALZ.3H3 (FIG. 2A). Biofilms were stained with Syto9 and imaged using CSML. Biofilms were not wash extensively in order determine the impact of ALZ.3H3 on biofilm architecture. […] Using the thresholding technique described earlier, the number of particles above the thickness of the wild-type S. Typhimurium were counted.

[3] = system: Histadine tagged CsgA (His-CsgA), curli; assay: Thioflavin T (ThT) fibrillization assay of His-CsgA; assay type: biochemical
Method: The formation of monomers into mature curli fibrils can be monitored by incubation with Thioflavin T (ThT). Fluorescence of ThT increases as it binds to amyloid fibril, allowing the amyloid formation process to be measured spectroscopically. The formation of amyloid fibers can be defined by a three stage sigmoidal curve (Dueholm et al., 2011, Biochemistry, 50(39):8281-90; Wang et al., 2007, J Biol Chem, 282(6):3713-9). In the first stage, monomeric subunits are slow to self-associate and ThT fluorescence is minimal (Naiki et al., 1991, Lab Invest, 65(1):104-10). The reaction exponential increases as monomeric seeds oligomerize and continue to elongate (Naiki et al., 1991, Lab Invest, 65(1):104-10). This process is marked by a rapid increase in ThT fluorescence (Naiki et al., 1991, Lab Invest, 65(1):104-10). The oligomers elongate into mature fibrils and Tht fluorescence peaks (Dueholm et al., 2011, Biochemistry, 50(39):8281-90; Wang et al., 2007, J Biol Chem, 282(6):3713-9). […] Histadine tagged CsgA (His-CsgA), which will naturally self-associate and fibrillize, was incubated with 0.5 mg/ml ALZ.3H3 and the fibrillization reaction was monitored using ThT. As controls synthetic peptides CsgAR4-5 and CsgAR4-5N122A were incubated with Tht and the fribrillization reaction was monitored in parallel. […]

S. Typhimurium biofilm [4] = assay: S. Typhimurium biofilms established in presence of mAb, Syto9 stain, CSLM, ImageJ particle count, supernatant plating; assay type: cell-based; conditions: 0.5 mg/ml
Method: After growth, biofilms were stained with Syto9 and imaged using CSLM. Three dimensional architecture was examined by creating 3D surface plots using ImageJ. […] To quantify the disperse biofilm created by treatment with ALZ.3H3, through the use of ImageJ all particles above the thickness of a wild-type S. Typhimurium ([…]) was used to set the threshold value, and these threshold parameters were applied to subsequent treatments (FIG. 1B). […] The bacteria recovered from the supernatants is representative of the loose disperse biofilm matrix that is easily dissociated from the biomass.

[5] = system: tau paired helical filaments (TAU PHF) isolated from AD brain homogenates; assay: SPR binding to tau paired helical filaments; conditions: antibody concentration 66.7 nM
Sequence of tau paired helical filaments (TAU PHF) isolated from AD brain homogenates (P10636 623-695 limits assumed): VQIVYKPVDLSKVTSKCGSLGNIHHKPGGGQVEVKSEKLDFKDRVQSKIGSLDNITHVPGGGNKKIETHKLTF
Method: FIG. 14 depicts a surface plasma resonance (SPR) analysis for binding to aggregated islet amyloid peptide IAPP and tau paired helical filaments (TAU PHF) isolated from AD brain homogenates. The antibody concentrations used in this study were 110 nM for the IAPP and 66.7 nM for the Tau-PHF.
Human mAbs were assayed by SPR for binding to aggregated islet amyloid peptide IAPP and tau paired helical filaments (TAU PHF) isolated from AD brain homogenates (FIG. 14). The antibody concentrations used in this study were 110 nM for the IAPP and 66.7 nM for the Tau-PHF.

[6] = system: Salmonella typhimurium catheter biofilm; assay: In vivo catheter assay: Salmonella typhimurium colonized catheters inserted into back flanks of mice
Method: (§1) Salmonella biofilms were grown alone or in the presence of ALZ3H3 antibody upon sterile i.v. catheters. Bacteria were labeled green using GFP. Congo red was used to stain for curli amyloid fibrils. […] To investigate the combination effect of ALZ3H3 and ampicillin on biofilm growth, mice were given 1 mg/ml Ampicillin in the drinking water 24 hours prior to catheter insertion. Sterile i.v. catheters were incubated for 24 hours with Salmonella typhimurium prior to insertion into the back flanks of Balb/C mice. 24 and 28 hours after catheter insertion 100 ug of ALZ3H3 was percutaneously inserted into the lumen of the catheter. 72 hours after catheter insertion, mice were euthanized and the catheters were removed. Bacteria were labeled green using GFP. Congo red was used to stain for curli amyloid fibrils. Catheters autofluoresced green.

E. coli UTI89 biofilm = assay: Colony forming units per biofilm on glass coverslips, E. coli UTI89
Method: (§2) Biofilms of S. Typhimurium (STM) or E. coli UTI89 grown in the absence or presence of 3H3 (250 ug/ml, 125 ug/ml, 50 ug/ml, 25 ug/ml, 10 ug/ml, 1 ug/ml) as well as grown with 0.5 mg/ml control A6 antibody on top of sterile glass coverslips for 72 hours at 26 C in a sterile 24 well dish. S. Typhimurium curli mutant (csgBA) and UTI89 curli mutant (csgBA) were also grown as a negative controls. In select conditions, biofilms were incubated for an additional 24 hours at 26 C with 30 ug/ml Ampicillin (Amp). The sterile glass coverslip, which was used as a surface for the biofilm to grow upon, was placed in a sterile 15 ml conical tube that contained 3 ml of sterile PBS. The biofilm was sonicated for 10 seconds at a setting of 4 using a ThermoFisher Sonic Dismembrator. Bacteria were enumerated by serial diluting 1:10 in sterile PBS and spot plating on agar plates.
(§3) Biofilms of S. Typhimurium (STM) or E. coli UTI89 grown in the absence or presence of 3H3 (250 ug/ml, 125 ug/ml, 50 ug/ml, 25 ug/ml, 10 ug/ml, 1 ug/ml) as well as grown with 0.5 mg/ml control A6 antibody on top of sterile glass coverslips for 72 hours at 26 C in a sterile 24 well dish. S. Typhimurium curli mutant (csgBA) and UTI89 curli mutant (csgBA) were also grown as a negative controls. In select conditions, biofilms were incubated for an additional 24 hours at 26 C with 30 ug/ml Ampicillin (Amp). […]

[7] = system: S. Typhimurium (STM) biofilm; assay: Colony forming units per biofilm on glass coverslips, S. Typhimurium
Method: as §2, §3

[8] = system: S. Typhimurium biofilm on medical grade catheters; assay: In vitro catheter assay: Salmonella biofilms grown on sterile i.v. catheters, GFP and Congo red; conditions: 0.5 mg/ml for 72 hours
Method: as §1

DNase
Overall biofilm appearance (S. Typhimurium biofilm [1]): no alteration in overall biofilm appearance

CC1(C)S[C@@H]2[C@H](NC(=O)[C@H](N)c3ccccc3)C(=O)N2[C@H]1C(=O)O [ampicillin]
Overall biofilm appearance (S. Typhimurium biofilm [1]): no alteration in overall biofilm appearance

B1: 4A6: human anti-amyloid mAb cloned from B cells of an Alzheimer's patient; heavy chain SEQ ID NO:57, light chain SEQ ID NO:59 (antibody, V domains shown)
VH: QVQLVQSGAEVKKPGASMRVSCKASGYTYTAYYIHWMRQAPGQGLEWMGWINPHIGSTNYAEKFRGRVTLTRDTSIKTAYMDLDRLTSDDTAIYYCARVRAPRSISGTLNSYGMDVWGQGTTVAVSS
VL: DIVMTQSPSSLSASVGDRVVITCRASLRIGTFLNWYQQTQGRAPKLLVSSASTLQSGVPSRFSGSGSGTDFTLTINSLQPEDFATYYCQQSYSTTWTFGQGTKVELK
modifications: Chemically Synthesized, ALZ.4A6 Heavy Chain; Chemically Synthesized, ALZ.4A6 Light Chain
Binding preference among Aβ42 conformers (Aβ42 conformers): preferentially bind Aβ fibrils
Kd (Aβ42 conformers; C-terminal biotinylated ADDLs/globulomers, read-out: Calculated affinity constant (KD), CTB oligo): > 2 µM
Kd (Aβ42 conformers; N-terminal biotinylated monomers, read-out: Calculated affinity constant (KD), NTB mono): > 2 µM

B2: ALZ.3H3: human monoclonal antibody with pan-amyloid binding activity; heavy chain SEQ ID NO:2, light chain SEQ ID NO:35 (antibody)
VH: MEFGLSWVFLVALLRGVQCQVQLVESGGGVVQPGRSLRLSCAASGFSFSTYGMHWVRQAPGKGLEWVAVISYDGSRKYYADTGKGRFTISRDNSKNTLYLEMNGLRAEDTAVYHCAKDLRRELGFGNRDYHYYGMDAWGQGTTVTVSSASTK
light: LTQPRSVSGSPGQSVTMSCTGTNSDIGGYNYVSWYQQHPGKAPKLMIYDVYKRPSGVPDRFSGSKSGNTASLTISGLQAEDEADYYCCSYAGTNNLIFGGGTKLTVLGQPKAAPSVTLFPPSSEELQANKATLVCLISDFYPGAVTVAWKADSSPVKAGVETTTPSKQSNNKYAASSYLSLTPEQWKSHRSYSCQV
modifications: Chemically Synthesized, ALZ.3H3 Heavy Chain; Chemically Synthesized, ALZ.3H3 Light Chain
Number of particles above the thickness of wild-type biofilm ([2]; 24 hour pre-established biofilm + 0.5 mg/ml for 24 hours): increased the number of particles
Biofilm matrix architecture ([2]; 24 hour pre-established biofilm + 0.5 mg/ml for additional 24 hours, vs 48 hour biofilm): began to exhibit a more disperse matrix
Number of particles above the thickness of wild-type biofilm ([2]; 48 hour pre-established biofilm + 0.5 mg/ml for 24 hours): the number of particles increased as well
Biofilm matrix architecture ([2]; 48 hour pre-established biofilm + 0.5 mg/ml for additional 24 hours, vs 72 hour biofilm): the biofilm matrix was more disperse
Biofilm mass (S. Typhimurium biofilm [1]; 0.5 mg/ml ALZ.3H3 during growth, then antibiotic treatment (ampicillin) for additional 24 hours): significant reduction in the biofilm mass to the levels below detection
Lag time (t0) for His-CsgA to self-associate and oligomerize ([3]; 0.5 mg/ml antibody, compared to synthetic peptide CsgAR4-5): significant increase in the lag times
ThT relative fluorescence units (fibril formation) ([3]; His-CsgA with 0.5 mg/ml antibody): significant reduction in the relative fluorescence units
Number of particles above the thickness of wild-type biofilm (20 μM) (S. Typhimurium biofilm [4]; 72 hours at 28° C.): significant increase in number of particles
Biofilm architecture (S. Typhimurium biofilm [4]; 72 hours at 28° C., 3D surface plots): altered the architecture of biofilm forming a disperse biofilm topography
Bacteria recovered from biofilm supernatant (S. Typhimurium biofilm [4]; plating supernatants): significantly more bacteria was recovered
Binding to Tau PHF [5]: notable for binding to Tau PHF
Catheter biofilm morphology and curli ([6]; 100 ug percutaneously into catheter lumen, catheters removed at 72 hours): disperse morphology with little curli
Amyloid incorporation in catheter biofilm ([6]; combination: 100 ug ALZ3H3 into lumen + 1 mg/ml ampicillin in drinking water): little to no amyloid incorporation
CFU/biofilm (E. coli UTI89 biofilm; UTI89 grown with 3H3 (1-250 ug/ml), 72 hours at 26 C): reduction of CFU/biofilm
CFU/biofilm (E. coli UTI89 biofilm; UTI89 grown with 3H3, then 30 ug/ml Ampicillin for additional 24 hours): additional reduction in CFU/biofilm
CFU/biofilm ([7]; STM grown with 3H3 (1-250 ug/ml), 72 hours at 26 C): reduction of CFU/biofilm
CFU/biofilm ([7]; STM grown with 3H3, then 30 ug/ml Ampicillin for additional 24 hours): additional reduction in CFU/biofilm
Catheter biofilm morphology [8]: the biofilm was dispersed
Congo red staining (curli fibers) [8]: no significant staining with Congo red

B3: 4G1: human anti-amyloid mAb cloned from B cells of an Alzheimer's patient; heavy chain SEQ ID NO:61, light chain SEQ ID NO:63 (antibody, V domains shown)
VH: EEHLVESGGALVQPGGSLRLSCEASGFTFRSYWMTWVRQAPGKGLEWLANIKQDGSDYYYVDSVKGRFTISRDNAKNTLYLQMNNLRADDTAVYFCARDARYRDTTWPQYYFYYFMDVWGKGTTVTVSS
VL: DIQLTQSPSSLSASIGDRVTVTCRASQSISNYLNWYQQKPGKAPKLLIYAASNLHTGVPSRFSGSGSGTHFTLTISSLQPEDFATYYCQLSYNNPRTFGPGTTVDIR
modifications: Chemically Synthesized, ALZ.4G1 Heavy Chain; Chemically Synthesized, ALZ.4G1 Light Chain
Binding to Tau PHF [5]: notable for binding to Tau PHF
